± gives the uncertainty stated by the source.
B1: Bromodomain adjacent to zinc finger domain protein 2B, residues 1927 to 1982; numbered along this chain, Q9UIF8 (parent)
chain: KSIMKVYCQICRKGDNEELLLLCDGCDKGCHTYCHRPKITTIPDGDWFCPACIAKA

Variants of: B1
Assay: abundance fitness (aPCA) (normalised: wild type 0, dead -1); higher = more abundant; growth selection in yeast, the domain comes from the species named
Details: Homo sapiens

| Variant | abundance fitness |
| --- | --- |
| FSIMKVYCQICRKGDNEELLLLCDGCDKGCHTYCHRPKITTIPDGDWFCPACIAKA [K1F] | -0.783 ± 0.4 |
| ISIMKVYCQICRKGDNEELLLLCDGCDKGCHTYCHRPKITTIPDGDWFCPACIAKA [K1I] | -0.262 ± 0.2 |
| LSIMKVYCQICRKGDNEELLLLCDGCDKGCHTYCHRPKITTIPDGDWFCPACIAKA [K1L] | -0.693 ± 0.38 |
| MSIMKVYCQICRKGDNEELLLLCDGCDKGCHTYCHRPKITTIPDGDWFCPACIAKA [K1M] | -0.157 ± 0.14 |
| RSIMKVYCQICRKGDNEELLLLCDGCDKGCHTYCHRPKITTIPDGDWFCPACIAKA [K1R] | -0.366 ± 0.12 |
| SSIMKVYCQICRKGDNEELLLLCDGCDKGCHTYCHRPKITTIPDGDWFCPACIAKA [K1S] | -0.176 ± 0.14 |
| TSIMKVYCQICRKGDNEELLLLCDGCDKGCHTYCHRPKITTIPDGDWFCPACIAKA [K1T] | -0.155 ± 0.25 |
| VSIMKVYCQICRKGDNEELLLLCDGCDKGCHTYCHRPKITTIPDGDWFCPACIAKA [K1V] | -0.581 ± 0.36 |
| YSIMKVYCQICRKGDNEELLLLCDGCDKGCHTYCHRPKITTIPDGDWFCPACIAKA [K1Y] | -0.318 ± 0.34 |
| KAIMKVYCQICRKGDNEELLLLCDGCDKGCHTYCHRPKITTIPDGDWFCPACIAKA [S2A] | -0.084 ± 0.1 |
| KCIMKVYCQICRKGDNEELLLLCDGCDKGCHTYCHRPKITTIPDGDWFCPACIAKA [S2C] | -0.181 ± 0.14 |
| KDIMKVYCQICRKGDNEELLLLCDGCDKGCHTYCHRPKITTIPDGDWFCPACIAKA [S2D] | 0.061 ± 0.16 |
| KEIMKVYCQICRKGDNEELLLLCDGCDKGCHTYCHRPKITTIPDGDWFCPACIAKA [S2E] | 0.034 ± 0.24 |
| KFIMKVYCQICRKGDNEELLLLCDGCDKGCHTYCHRPKITTIPDGDWFCPACIAKA [S2F] | -0.155 ± 0.22 |
| KGIMKVYCQICRKGDNEELLLLCDGCDKGCHTYCHRPKITTIPDGDWFCPACIAKA [S2G] | 0.065 ± 0.097 |
| KHIMKVYCQICRKGDNEELLLLCDGCDKGCHTYCHRPKITTIPDGDWFCPACIAKA [S2H] | 0.085 ± 0.25 |
| KIIMKVYCQICRKGDNEELLLLCDGCDKGCHTYCHRPKITTIPDGDWFCPACIAKA [S2I] | 0.051 ± 0.27 |
| KKIMKVYCQICRKGDNEELLLLCDGCDKGCHTYCHRPKITTIPDGDWFCPACIAKA [S2K] | -0.1 ± 0.14 |
| KMIMKVYCQICRKGDNEELLLLCDGCDKGCHTYCHRPKITTIPDGDWFCPACIAKA [S2M] | -0.23 ± 0.21 |
| KNIMKVYCQICRKGDNEELLLLCDGCDKGCHTYCHRPKITTIPDGDWFCPACIAKA [S2N] | -0.506 ± 0.32 |
| KPIMKVYCQICRKGDNEELLLLCDGCDKGCHTYCHRPKITTIPDGDWFCPACIAKA [S2P] | -0.243 ± 0.15 |
| KQIMKVYCQICRKGDNEELLLLCDGCDKGCHTYCHRPKITTIPDGDWFCPACIAKA [S2Q] | -0.073 ± 0.23 |
| KRIMKVYCQICRKGDNEELLLLCDGCDKGCHTYCHRPKITTIPDGDWFCPACIAKA [S2R] | -0.077 ± 0.091 |
| KTIMKVYCQICRKGDNEELLLLCDGCDKGCHTYCHRPKITTIPDGDWFCPACIAKA [S2T] | 0.019 ± 0.2 |

| Variant | abundance fitness |
| --- | --- |
| KVIMKVYCQICRKGDNEELLLLCDGCDKGCHTYCHRPKITTIPDGDWFCPACIAKA [S2V] | -0.156 ± 0.14 |
| KWIMKVYCQICRKGDNEELLLLCDGCDKGCHTYCHRPKITTIPDGDWFCPACIAKA [S2W] | -0.379 ± 0.14 |
| KYIMKVYCQICRKGDNEELLLLCDGCDKGCHTYCHRPKITTIPDGDWFCPACIAKA [S2Y] | -0.558 ± 0.4 |
| KSAMKVYCQICRKGDNEELLLLCDGCDKGCHTYCHRPKITTIPDGDWFCPACIAKA [I3A] | 0.014 ± 0.077 |
| KSCMKVYCQICRKGDNEELLLLCDGCDKGCHTYCHRPKITTIPDGDWFCPACIAKA [I3C] | -0.129 ± 0.14 |
| KSDMKVYCQICRKGDNEELLLLCDGCDKGCHTYCHRPKITTIPDGDWFCPACIAKA [I3D] | 0.059 ± 0.14 |
| KSEMKVYCQICRKGDNEELLLLCDGCDKGCHTYCHRPKITTIPDGDWFCPACIAKA [I3E] | -0.103 ± 0.087 |
| KSFMKVYCQICRKGDNEELLLLCDGCDKGCHTYCHRPKITTIPDGDWFCPACIAKA [I3F] | -0.282 ± 0.2 |
| KSHMKVYCQICRKGDNEELLLLCDGCDKGCHTYCHRPKITTIPDGDWFCPACIAKA [I3H] | -0.144 ± 0.13 |
| KSLMKVYCQICRKGDNEELLLLCDGCDKGCHTYCHRPKITTIPDGDWFCPACIAKA [I3L] | -0.189 ± 0.075 |
| KSMMKVYCQICRKGDNEELLLLCDGCDKGCHTYCHRPKITTIPDGDWFCPACIAKA [I3M] | -0.088 ± 0.11 |
| KSNMKVYCQICRKGDNEELLLLCDGCDKGCHTYCHRPKITTIPDGDWFCPACIAKA [I3N] | 0.105 ± 0.15 |
| KSPMKVYCQICRKGDNEELLLLCDGCDKGCHTYCHRPKITTIPDGDWFCPACIAKA [I3P] | -0.081 ± 0.096 |
| KSQMKVYCQICRKGDNEELLLLCDGCDKGCHTYCHRPKITTIPDGDWFCPACIAKA [I3Q] | 0.104 ± 0.17 |
| KSRMKVYCQICRKGDNEELLLLCDGCDKGCHTYCHRPKITTIPDGDWFCPACIAKA [I3R] | -0.125 ± 0.066 |
| KSSMKVYCQICRKGDNEELLLLCDGCDKGCHTYCHRPKITTIPDGDWFCPACIAKA [I3S] | -0.052 ± 0.076 |
| KSTMKVYCQICRKGDNEELLLLCDGCDKGCHTYCHRPKITTIPDGDWFCPACIAKA [I3T] | -0.063 ± 0.1 |
| KSVMKVYCQICRKGDNEELLLLCDGCDKGCHTYCHRPKITTIPDGDWFCPACIAKA [I3V] | -0.079 ± 0.064 |
| KSWMKVYCQICRKGDNEELLLLCDGCDKGCHTYCHRPKITTIPDGDWFCPACIAKA [I3W] | -0.221 ± 0.092 |
| KSYMKVYCQICRKGDNEELLLLCDGCDKGCHTYCHRPKITTIPDGDWFCPACIAKA [I3Y] | -0.327 ± 0.16 |
| KSIAKVYCQICRKGDNEELLLLCDGCDKGCHTYCHRPKITTIPDGDWFCPACIAKA [M4A] | -0.316 ± 0.086 |
| KSICKVYCQICRKGDNEELLLLCDGCDKGCHTYCHRPKITTIPDGDWFCPACIAKA [M4C] | -0.054 ± 0.12 |
| KSIEKVYCQICRKGDNEELLLLCDGCDKGCHTYCHRPKITTIPDGDWFCPACIAKA [M4E] | -0.184 ± 0.12 |
